We go through 5 molecules from patent US20180327506A1 (AbbVie / Abbott, published 2018).

Read-outs that look alike come from different tables or passages of the source.

For test [1], the target named is T1, full-length mature human EMR2 (residues Q24-N823) with N-terminal aspartic acid/lysine epitope tag, … (human, UniProt Q9UHX3 24-823).
T1 sequence: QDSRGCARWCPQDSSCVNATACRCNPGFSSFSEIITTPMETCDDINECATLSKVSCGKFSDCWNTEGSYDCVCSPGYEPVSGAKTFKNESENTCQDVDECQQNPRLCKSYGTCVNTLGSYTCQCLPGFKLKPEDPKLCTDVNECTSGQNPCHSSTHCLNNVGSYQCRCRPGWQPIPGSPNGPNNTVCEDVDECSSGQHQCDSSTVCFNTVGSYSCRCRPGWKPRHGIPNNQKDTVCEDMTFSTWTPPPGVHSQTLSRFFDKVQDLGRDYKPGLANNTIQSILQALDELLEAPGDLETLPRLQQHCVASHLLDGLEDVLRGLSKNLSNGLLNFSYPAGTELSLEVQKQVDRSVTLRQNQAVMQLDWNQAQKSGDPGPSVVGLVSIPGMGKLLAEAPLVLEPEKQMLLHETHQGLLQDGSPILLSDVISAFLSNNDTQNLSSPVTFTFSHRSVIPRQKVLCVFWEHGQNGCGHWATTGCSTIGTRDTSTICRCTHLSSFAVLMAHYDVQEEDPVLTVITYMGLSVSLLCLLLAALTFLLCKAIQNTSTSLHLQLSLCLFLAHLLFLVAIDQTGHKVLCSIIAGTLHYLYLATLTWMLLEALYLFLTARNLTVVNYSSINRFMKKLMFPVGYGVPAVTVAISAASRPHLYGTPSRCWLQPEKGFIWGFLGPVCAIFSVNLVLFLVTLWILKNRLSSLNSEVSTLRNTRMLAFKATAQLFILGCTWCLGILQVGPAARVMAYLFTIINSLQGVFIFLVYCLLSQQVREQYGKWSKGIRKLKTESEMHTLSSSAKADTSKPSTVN
Kind of test: cell-based or functional assay.

Test [2] addresses T2, full-length mature cynomolgus EMR2 (residues Q24-N816) with N-terminal aspartic acid/lysine epitope tag, … (cynomolgus monkey (Macaca fascicularis), UniProt A0A2K5WL23 21-816).
T2 sequence: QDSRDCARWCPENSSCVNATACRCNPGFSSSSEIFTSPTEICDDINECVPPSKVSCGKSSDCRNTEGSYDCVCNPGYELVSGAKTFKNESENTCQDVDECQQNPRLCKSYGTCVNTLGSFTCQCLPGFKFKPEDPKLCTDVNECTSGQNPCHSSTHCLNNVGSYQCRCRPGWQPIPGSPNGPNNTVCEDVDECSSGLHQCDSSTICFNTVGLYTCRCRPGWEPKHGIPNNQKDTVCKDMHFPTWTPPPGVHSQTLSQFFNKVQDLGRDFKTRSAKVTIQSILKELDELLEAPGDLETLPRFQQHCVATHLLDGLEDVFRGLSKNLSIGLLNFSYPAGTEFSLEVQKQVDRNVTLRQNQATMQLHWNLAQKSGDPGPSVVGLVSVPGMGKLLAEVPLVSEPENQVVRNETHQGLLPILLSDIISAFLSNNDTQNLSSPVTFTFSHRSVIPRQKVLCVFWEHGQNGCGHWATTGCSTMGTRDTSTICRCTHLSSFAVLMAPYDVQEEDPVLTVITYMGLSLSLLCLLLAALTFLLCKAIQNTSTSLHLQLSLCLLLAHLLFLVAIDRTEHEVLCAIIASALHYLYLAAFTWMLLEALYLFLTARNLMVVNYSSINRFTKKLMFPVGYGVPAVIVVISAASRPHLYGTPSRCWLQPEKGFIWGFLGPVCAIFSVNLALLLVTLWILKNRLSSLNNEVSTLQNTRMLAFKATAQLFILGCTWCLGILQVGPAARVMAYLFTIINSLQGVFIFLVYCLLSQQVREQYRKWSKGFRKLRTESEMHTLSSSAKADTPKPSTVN
Kind of test: cell-based or functional assay.

Test [3] addresses T3, full-length mature human CD97 (residues Q21-I845) with N-terminal aspartic acid/lysine epitope tag, … (human, UniProt P48960 21-835).
T3 sequence (looked up): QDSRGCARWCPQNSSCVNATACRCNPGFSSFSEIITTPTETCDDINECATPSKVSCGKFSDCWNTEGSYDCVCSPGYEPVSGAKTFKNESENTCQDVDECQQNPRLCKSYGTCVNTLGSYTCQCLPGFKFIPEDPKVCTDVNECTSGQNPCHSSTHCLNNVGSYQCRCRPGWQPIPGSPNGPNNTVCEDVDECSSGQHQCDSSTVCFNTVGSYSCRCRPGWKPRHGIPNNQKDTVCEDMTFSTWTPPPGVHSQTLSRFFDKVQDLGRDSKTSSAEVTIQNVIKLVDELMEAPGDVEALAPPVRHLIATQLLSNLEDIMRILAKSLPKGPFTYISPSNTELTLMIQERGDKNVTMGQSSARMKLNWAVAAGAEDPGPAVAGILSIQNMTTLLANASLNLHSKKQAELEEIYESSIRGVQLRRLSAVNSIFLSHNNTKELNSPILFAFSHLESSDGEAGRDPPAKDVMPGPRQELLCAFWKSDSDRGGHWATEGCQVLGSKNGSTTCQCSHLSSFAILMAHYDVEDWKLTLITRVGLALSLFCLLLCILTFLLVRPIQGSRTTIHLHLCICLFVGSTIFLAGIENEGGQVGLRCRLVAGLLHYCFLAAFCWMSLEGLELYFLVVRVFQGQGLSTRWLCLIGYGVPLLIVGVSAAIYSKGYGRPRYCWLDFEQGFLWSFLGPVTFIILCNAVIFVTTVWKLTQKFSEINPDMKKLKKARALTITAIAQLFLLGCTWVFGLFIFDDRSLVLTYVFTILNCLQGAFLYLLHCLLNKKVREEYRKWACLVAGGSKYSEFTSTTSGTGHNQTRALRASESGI
Put plainly: cell-based or functional assay.

The target of test [4] is T1, full-length mature human EMR2 (residues …). Put plainly: flow cytometry on transduced HEK293T; 293 naive MFI 97.1. (In flow cytometry, cells or beads pass a laser one at a time.)
Protocol: (§1) The exemplary antibodies were also tested using flow cytometry to determine their ability to associate with hEMR2, cEMR2 and CD97 expressed on the surface of cells.
For test [5], the target named is T2, full-length mature cynomolgus EMR2 …. The description is as above.
Protocol: as §1
Test [6] deals with T3, full-length mature human CD97 (residues …). The test is described as above.
Protocol: as §1
Test [7] has as its target T1, full-length mature human EMR2 (residues …). Put plainly: flow cytometry on transduced HEK293T; 293 naive MFI 97.8.
Protocol: as §1
The target of test [8] is T2, full-length mature cynomolgus EMR2 …. The description is as above.
Protocol: as §1
The target of test [9] is T3, full-length mature human CD97 (residues …). Described as above.
Protocol: as §1
Test [10] has as its target T1, full-length mature human EMR2 (residues …). Put plainly: flow cytometry on transduced HEK293T; 293 naive MFI 326.
Protocol: as §1
The target of test [11] is T2, full-length mature cynomolgus EMR2 …. The test is described as above.
Protocol: as §1
Test [12] concerns the target T3, full-length mature human CD97 (residues …). The description is as above.
Protocol: as §1
The target in test [13] is T1, full-length mature human EMR2 (residues …). Put plainly: cell-based or functional assay. This is another data set of the same source.
Test [14] addresses T3, full-length mature human CD97 (residues …). Kind of test: cell-based or functional assay. The source holds these as a separate data set.

B1: SC93.243 (antibody, IgG2b, V domains shown)
VH: QVQLQQSGAELMKPGASVKISCKATGYTFSSYWIEWVKQRPGHGLEWIGEILPGSGRTNYNERLKGKATFTADTSSNTAYMQLSSLTSEDSAVYYCARPYFYGSNFDFWGQGTTLTVSS
VL: DIVMTQSHKFMSTSVGDRVSITCKASQDVGTAVAWYQQKPGQSPKLLIYWASTRHTGVPDRFTGSGSGTDFTLTISNVQSEDLADYFCQQYSSYHTFGGGTKLEIK
notes: murine, IgG2b
For B1, the entries for the “% live, FAB-saporin killing assay” value in [1], in test [2] and in test [3] were 68.7%, 20.8% and 91.9%, respectively. For the same molecule, the results for the “FC MFI” value in test [4], in [5] and in [6] were 42700, 65800 and 8140, respectively.

B2: SC93.239 (antibody, V domains shown)
VH: LVQLQQSGVELARPGASVKLSCKASGYIFTSYGISWVKQRTGQGLEWIGNIYPRTGNTYYNEKFKDKATLTADKSSNTAYMELRSLTSEDSAVYFCARGTHYDPLDYWGQGTTLTVSS
VL: ENVLTQSPAIMSASPGEKVTMTCRASSSVSSSDLHWYQQKSGASPKLWIYSTSNLASGVPARFSGSGSGASCSLTISSVEAEDAATYYCHQYSGYPWTFGGGTKLEIK
notes: Murine hybridoma antibody with a kappa light chain; also called clone SC93.239; SC93.239 (Bin A)
Consider B2, for which the entries for the “% live, FAB-saporin killing assay” value in [1], in [2] and in test [3] were 16.8%, 16.7% and 106%, respectively. Besides, the “FC MFI” value is 71100 in test [7], 76700 in test [8] and 925 in test [9].

B3: SC93.252 (antibody, IgG2a, V domains shown)
VH: QVQLQQSDAELVKPGASVKISCKVSGFSFTDHTIHWMRQRPEQGLEWIGYIYPTDGNTRYNEKFKGKASLTADKSSTTAYMQLSSLTSEDSAVYFCAKRGYYWYFDVWGTGTTVTVSS
VL: DIQMTQASSYLSVSLGGRVTITCKASDHINNWLAWYQQKPGNAPRLLISHATNLETGFPSRFSGSGSGKDYTLSITSLQTEDVATYYCQQYWNIPYTFGGGTKLEIE
notes: murine, IgG2a
Take B3: the “% live, FAB-saporin killing assay” value in test [1] stood at 10.8%; in test [2], 9.42%; in test [3] it was 9.09%. Also, the entries for the “FC MFI” value in test [10], in test [11] and in [12] were 40500, 45200 and 43800, respectively.

B4: SC93.216 (antibody, IgG1, V domains shown)
VH: EVQLVESGGGLVKPGGSLKLSCAASGFTFSSYGMSWVRQTPEKRLEWVAAIHSNGDITYYPDTVKGRFTISRDNAKNTLYLQMSSLTSEDTALYYCANLAYWGQGTLVTVSA
VL: EIQMTQSPSSMSASLGDRITITCQATQDIVKNLNWYQQKPGKSPSSLIYYATELAEGVPSRFSGSGSGSDYSLTISNLESEDFADYYCLQFYEFPLTFGAGTKLELK
In the case of B4, the “% live, FAB-saporin killing assay” value was determined as 102% in test [13] and 107% in test [14].

B5: SC93.15 (antibody, IgG1, V domains shown)
VH: EVQLQQSGPELVKPGASVKISCKGSGYTFTDYFMNWVKLSHGKSLEWIGEINPNNGGTNYNQKFKGKATLTVDKSSSIAYMELRSLTSEDSAVYYCARPGTNYWGPGTTLTVSS
VL: DIVMTQSHKFMSTSVGDRVSITCKASQNVGTSVAWYQQKPGHSPKLLIYWASTRHTGVPDRFTGSGSGTDFSLTISSVQSEDLTDYFCQQYSSYPLTFGGGTKLEIK
As for B5, the “% live, FAB-saporin killing assay” value amounted to 15% in test [13] and 99.5% in test [14].
